Reference: patent US20250109201A1

Tests used:
[1] = target: ECD-His tagged human ILT2 haplotype PE01 (human) (UniProt Q8NHL6); assay: SPR, LILRA and LILRB family panel
[2] = target: recombinant human LILRA1/LIR-6 (Sino Biological 17220-H08H-100) (human) (UniProt O75019); assay: SPR, LILRA and LILRB family panel
[3] = target: recombinant human LILRA3/ILT6 (Sino Biological 13549-H08H-100) (human) (UniProt Q8N6C8); assay: SPR, LILRA and LILRB family panel
[4] = target: complement component C1q (Sigma/C1740-1 mg) (human) (UniProt P02745); assay: ELISA, antibody coated, C1q in solution, OD 450 nm
[5] = target: complement component C1q (Sigma/C1740-1 mg) (human) (UniProt P02745); assay: ELISA, antibody coated in a dilution series, C1q added at 2 µg/mL, biotinylated anti-C1q and streptavidin-HRP
[6] = target: human ILT2 extracellular and transmembrane domains expressed on CHO cells (human) (UniProt Q8NHL6); assay: flow cytometry, CHO cells with low human ILT2
[7] = target: human ILT2 extracellular and transmembrane domains expressed on CHO cells (human) (UniProt Q8NHL6); assay: flow cytometry, CHO cells with high human ILT2
[8] = target: full-length ILT2 expressed on Jurkat cells (human) (UniProt Q8NHL6); assay: cell-based or functional assay
[9] = target: human ILT2 extracellular and transmembrane domains expressed on CHO cells (human) (UniProt Q8NHL6); assay: flow cytometry, blocking of HLA-G-Fc-PE on CHO cells with high human ILT2

Sequence of recombinant human LILRA1/LIR-6 (Sino Biological 17220-H08H-100) (human) (O75019 17-461 limits assumed): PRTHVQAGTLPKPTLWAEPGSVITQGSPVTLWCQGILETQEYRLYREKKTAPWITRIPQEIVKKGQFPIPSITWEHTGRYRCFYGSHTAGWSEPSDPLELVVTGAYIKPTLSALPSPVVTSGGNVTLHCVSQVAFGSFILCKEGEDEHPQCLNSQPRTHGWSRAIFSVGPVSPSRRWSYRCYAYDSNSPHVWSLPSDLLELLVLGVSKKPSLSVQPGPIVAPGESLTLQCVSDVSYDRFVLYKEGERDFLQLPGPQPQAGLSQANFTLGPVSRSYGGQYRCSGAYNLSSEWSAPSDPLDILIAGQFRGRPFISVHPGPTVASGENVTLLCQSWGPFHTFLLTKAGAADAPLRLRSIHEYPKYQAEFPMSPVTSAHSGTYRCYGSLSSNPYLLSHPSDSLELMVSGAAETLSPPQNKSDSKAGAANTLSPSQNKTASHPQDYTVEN
Sequence of ECD-His tagged human ILT2 haplotype PE01 (human) (Q8NHL6 24-458): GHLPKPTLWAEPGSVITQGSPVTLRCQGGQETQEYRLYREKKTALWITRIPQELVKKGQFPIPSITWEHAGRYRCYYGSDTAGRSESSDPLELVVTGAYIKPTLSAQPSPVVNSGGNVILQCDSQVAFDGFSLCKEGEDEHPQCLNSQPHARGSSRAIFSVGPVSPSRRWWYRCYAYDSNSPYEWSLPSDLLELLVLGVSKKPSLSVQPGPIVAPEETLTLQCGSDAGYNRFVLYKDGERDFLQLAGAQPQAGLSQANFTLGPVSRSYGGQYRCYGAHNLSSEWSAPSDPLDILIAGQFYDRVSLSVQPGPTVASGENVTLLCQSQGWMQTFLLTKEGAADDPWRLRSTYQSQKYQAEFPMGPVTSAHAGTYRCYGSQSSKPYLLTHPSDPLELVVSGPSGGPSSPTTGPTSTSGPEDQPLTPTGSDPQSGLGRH
Sequence of complement component C1q (Sigma/C1740-1 mg) (human) (P02745 23-245 limits assumed, chain 1 of 3): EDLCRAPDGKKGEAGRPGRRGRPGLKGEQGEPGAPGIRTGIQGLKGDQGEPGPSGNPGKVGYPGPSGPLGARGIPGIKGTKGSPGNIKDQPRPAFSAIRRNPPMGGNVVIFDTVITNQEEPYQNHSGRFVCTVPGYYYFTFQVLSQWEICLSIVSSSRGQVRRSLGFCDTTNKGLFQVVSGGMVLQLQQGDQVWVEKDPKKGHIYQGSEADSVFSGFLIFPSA
Sequence of complement component C1q (Sigma/C1740-1 mg) (human) (P02746 28-253 limits assumed, chain 2 of 3, further chain): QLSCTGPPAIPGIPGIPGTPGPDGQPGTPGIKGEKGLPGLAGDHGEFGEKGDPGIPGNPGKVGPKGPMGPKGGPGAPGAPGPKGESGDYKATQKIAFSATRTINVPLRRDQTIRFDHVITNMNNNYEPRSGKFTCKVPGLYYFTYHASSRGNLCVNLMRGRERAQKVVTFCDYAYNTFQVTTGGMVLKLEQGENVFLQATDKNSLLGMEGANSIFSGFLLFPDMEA
Sequence of complement component C1q (Sigma/C1740-1 mg) (human) (P02747 29-245 limits assumed, chain 3 of 3, further chain): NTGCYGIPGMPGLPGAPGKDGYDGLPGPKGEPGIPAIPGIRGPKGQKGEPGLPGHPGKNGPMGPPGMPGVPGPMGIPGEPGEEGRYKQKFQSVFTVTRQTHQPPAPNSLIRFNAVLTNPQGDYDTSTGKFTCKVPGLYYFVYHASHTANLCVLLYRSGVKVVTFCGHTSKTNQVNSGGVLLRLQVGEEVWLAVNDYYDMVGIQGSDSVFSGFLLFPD
Sequence of recombinant human LILRA3/ILT6 (Sino Biological 13549-H08H-100) (human) (Q8N6C8 24-439 limits assumed): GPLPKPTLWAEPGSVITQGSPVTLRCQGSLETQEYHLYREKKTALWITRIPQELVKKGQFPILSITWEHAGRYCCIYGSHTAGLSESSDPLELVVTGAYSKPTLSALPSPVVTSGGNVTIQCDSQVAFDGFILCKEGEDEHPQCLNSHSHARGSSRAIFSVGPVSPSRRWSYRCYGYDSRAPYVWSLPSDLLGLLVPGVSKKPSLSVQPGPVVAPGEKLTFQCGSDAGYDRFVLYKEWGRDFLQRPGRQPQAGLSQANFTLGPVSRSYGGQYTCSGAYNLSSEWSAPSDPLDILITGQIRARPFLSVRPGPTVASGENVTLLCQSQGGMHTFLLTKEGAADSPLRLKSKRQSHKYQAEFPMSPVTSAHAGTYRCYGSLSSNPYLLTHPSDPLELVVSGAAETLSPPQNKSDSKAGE
Sequence of human ILT2 extracellular and transmembrane domains expressed on CHO cells (human) (Q8NHL6 24-482 limits assumed): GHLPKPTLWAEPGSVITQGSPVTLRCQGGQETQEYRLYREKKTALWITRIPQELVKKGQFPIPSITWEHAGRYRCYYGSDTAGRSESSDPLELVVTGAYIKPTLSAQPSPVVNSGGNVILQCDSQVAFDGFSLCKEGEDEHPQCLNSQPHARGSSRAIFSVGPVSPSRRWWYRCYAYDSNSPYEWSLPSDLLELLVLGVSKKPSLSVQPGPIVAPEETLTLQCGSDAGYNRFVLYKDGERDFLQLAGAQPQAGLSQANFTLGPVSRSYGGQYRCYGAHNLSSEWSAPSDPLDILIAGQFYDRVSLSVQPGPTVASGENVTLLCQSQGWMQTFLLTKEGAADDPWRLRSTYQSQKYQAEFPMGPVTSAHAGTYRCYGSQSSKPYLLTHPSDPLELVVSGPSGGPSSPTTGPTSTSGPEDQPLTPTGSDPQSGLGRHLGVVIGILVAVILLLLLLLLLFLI
Sequence of full-length ILT2 expressed on Jurkat cells (human) (Q8NHL6 24-650): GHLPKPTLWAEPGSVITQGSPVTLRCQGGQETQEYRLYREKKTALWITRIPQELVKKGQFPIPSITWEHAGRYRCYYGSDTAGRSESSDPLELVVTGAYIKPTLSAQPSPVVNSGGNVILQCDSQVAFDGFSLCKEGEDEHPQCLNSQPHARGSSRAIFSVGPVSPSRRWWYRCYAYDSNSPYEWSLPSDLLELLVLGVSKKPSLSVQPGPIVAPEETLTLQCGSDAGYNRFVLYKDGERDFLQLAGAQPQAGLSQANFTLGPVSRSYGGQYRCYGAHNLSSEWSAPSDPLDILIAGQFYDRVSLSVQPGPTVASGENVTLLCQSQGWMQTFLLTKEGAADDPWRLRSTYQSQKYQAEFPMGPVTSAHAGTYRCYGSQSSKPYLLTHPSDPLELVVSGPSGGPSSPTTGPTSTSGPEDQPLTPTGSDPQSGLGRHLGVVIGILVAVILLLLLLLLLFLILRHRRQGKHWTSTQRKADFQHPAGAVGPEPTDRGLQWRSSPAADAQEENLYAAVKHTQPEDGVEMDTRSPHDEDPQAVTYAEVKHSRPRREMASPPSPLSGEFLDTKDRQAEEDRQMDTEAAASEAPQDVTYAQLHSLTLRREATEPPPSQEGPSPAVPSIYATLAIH

Row | Substance | Kd [1] [nM] | Kd [2] [nM] | Kd [3] [nM] | further results
1 | 292305 (R&D Systems, #MAB20171) (antibody) | 2.4 | 260 | 100 | –
2 | IgG4 isotype control (CrownBio/C00045-5) (antibody) | – | – | – | Average AUC [4]: 0.5
3 | adalimumab (Myonex), an anti-TNFα IgG1 antibody | – | – | – | EC50 (read off the curve) [5]: 3 µg/mL
4 | 4F9 (Biorad, #MCA2515F) (antibody) | 0.89 | 40 | 26 | –
5 | 238145 (Abcam, #EPR22861-6) (antibody) | 0.24 | 0.81 | < 0.1 | –
6 | nivolumab (Evidentric GmbH), an anti-PD-1 IgG4 antibody | – | – | – | Average AUC [4]: 0.52
7 | isotype control (VRC01 IgG4) (antibody) | – | – | – | AUC [6]: 542; AUC [7]: 570

Further lines, with some results ahead:

Row | Kd [1] [nM] | Kd [2] [nM] | Kd [3] [nM] | Substance | further results
8 | 1.7 | 5 | 13 | 1Q-G2 (Creative, #DCABH-4494) (antibody) | –
9 | 0.15 | 32 | 6 | VMP55 (Novus, #NBP2-50475PE) (antibody) | –
10 | 3.6 | 7.2 | 15 | HP-F1 (Invitrogen, #16-5129-82) (antibody) | FcγRIIIa-NFAT luciferase signaling, Average AUC normalized to HP-F1 [8]: 100; FcγRIIIa-NFAT luciferase signaling, EC50 [8]: 32.8 µg/mL; IC50 [9]: 0.307 µg/mL
